The supplement of paper PMC11865577

How the values were obtained:
Test in all cases: pull-down binding Z-score (relative to library population); higher = stronger binding
Details in all cases: RNA library: Library-2
[1] = system: TO-3-N3 (biotin conjugate)
Method in brief: (§1)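 Cy5- or Cy3-end-labelled RNA library (1 μg) was heat-folded in phosphate/NaCl/KCl buffer and incubated 60 min at 25 °C with streptavidin beads carrying 100 pmol biotin-conjugated small molecule. After three washes, bound RNA was eluted in hot SDS and hybridised 20 h at 55.5 °C to a DNA barcode microarray. Binding was scored by subtracting a beads-only control, averaging barcoded replicate probes after dropping highest and lowest, and converting to a Z-score against library mean and standard deviation.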

[2] = system: TO-3-N3-2 (biotin conjugate)
Method in brief: as §1

[3] = system: TO-N3 (biotin conjugate)
Method in brief: as §1

[4] = system: TO-N3-2 (biotin conjugate)
Method in brief: as §1

Sequence	pull-down binding Z-score [1]	pull-down binding Z-score [2]	pull-down binding Z-score [3]	pull-down binding Z-score [4]
AACGGGGCGGGCCCUGGGCGGGGUAA [G4_2A2_VEGF-Pu22-mt2]	8.94	10.6	7.22	5.33
AACGGGGCGGGCCGGGGGCGGGGUAA [G4_2A2_VEGF-Pu22]	8.27	10.4	6.62	4.88
AACGGGGCGGGCCUCGGGCGGGGUAA [G4_2A2_VEGF-Pu22-mt3]	8.63	10.6	6.92	5.08
AACGGGGCGGGCCUGGGCGGGGUAA [G4_2A2_VEGF-Pu22-del]	8.83	11	7.15	5.22
AACGGGGCGGGCCUUGGGCGGGGUAA [G4_2A2_VEGF-Pu22-mt]	8.69	10.6	7.05	5.19
AACUACUAUUCAAACAAUUGUUGAGGUUCAACCUCAAUUAGAGAUGGAACUUACACCAGUUGUUCAGACUAUUGAAGUGAAUAGUUUUAGUGGUU	-0.295	-0.609	-0.383	-0.981
AACUGAAAGUAAACCUUCAGUU	-0.172	-0.384	-0.401	-1.3
AACUGCUUUUGGCUUAGUUGCAGAGUGGUU	-0.63	-0.132	-0.115	-0.255
AACUGGUAAUACACUUCAGUGUAUAAUGCUAGUU	-0.966	-0.418	-1.55	-1.89
AACUGUGAUGUUGUAAUAGGAAUUGUCAACAACACAGUU	-0.296	-0.0554	-0.618	-1
AACUUCUUAAGAGUGCUUAUGAAAAUUUUAAUCAGCACGAAGUU	0.425	0.972	-0.246	-0.771
AACUUUAAUGUU [SHAPE_invitro_SARS-CoV-2_Motif_263]	0.212	-0.765	0.00196	-1.33
AACUUUAGCUUGUUUUGUGCUUGCUGCUGUU	0.701	-0.0892	0.34	-0.708
AAGAAAGUUGAUGGUGUUGUCCAACAAUUACCUGAAACUUACUU [DMSMaPseq_invitro_SARS-CoV-2_Motif_358]	-1.04	-0.423	-1.34	-1.44
AAGAAGCUGCGCUGUGCACCUUUUU [DMSMaPseq_invitro_SARS-CoV-2_Motif_178]	-0.433	-0.354	-0.0759	0.126
AAGAAGGUCAAAUCAAUGAUAUGAUUUUAUCUCUUCUU	-0.253	0.176	-0.543	-1.06
AAGACUCAUCUCUAUGAUGGGUUUU	-0.938	-0.575	-1.34	-1.46
AAGAGAAAGUCAACAUCAAUAUUGUUGGUGACUUUAAACUU	0.608	-0.0741	0.557	-0.494
AAGCUGAUGAGUACGAACUUAUGUACUCAUUCGUUU	-0.634	-0.284	-0.877	-0.895
AAGGAGCUGGUGGCCAUAGUUACGGCGCCGAUCUAAAGUCAUUUGACUUAGGCGACGAGCUUGGCACUGAUCCUU [DMSMaPseq_invitro_SARS-CoV-2_Motif_14]	0.0504	0.134	0.349	0.492
AAGGAUGCUACUCCUU	-0.922	-0.789	-1.32	-1.36
AAGGCUGAUGAAACUCAAGCCUU	-0.506	-0.269	-0.413	-0.106
AAGGGAGGGGCGGGUCGGGAA [G4_2A2_NRAS]	8.72	11.1	7.02	5.24
AAGGGGGCCGUGGGGUGGGAGCUGGGGAA [G4_2A2_BCL2]	8.07	9.67	6.6	4.88

Sequence	pull-down binding Z-score [1]	pull-down binding Z-score [2]	pull-down binding Z-score [3]	pull-down binding Z-score [4]
AAGGUAAAACCAACAGUGGUUGUUAAUGCAGCCAAUGUUUACCUU [DMSMaPseq_invitro_SARS-CoV-2_Motif_60]	-0.572	-0.217	-0.792	-0.952
AAGGUAAGAGGGAUACUUACCUG [U1snRNP5ss-26]	-0.614	-0.286	-0.673	-0.262
AAGGUACAGCAGAUACUUACCUG [U1snRNP5ss-22]	-0.32	0.198	-0.213	0.0449
AAGUGCUUUUGUUAAUUUAAAACAAUUACCAUUU [SHAPE_invitro_SARS-CoV-2_Motif_354]	-0.729	-0.225	-0.977	-0.811
AAGUUAAUUUUCCUCUGGCUGUUAUGGCCAGUAACUU [SHAPE_invivo_SARS-CoV-2_Motif_506]	-0.74	-0.439	-1.02	-0.963
AAGUUUGUUCGCAUUCAACCAGGACAGACUU [DMSMaPseq_invitro_SARS-CoV-2_Motif_187]	1.1	0.0441	1.09	-0.349
AAUAACUUACCUUUUAAGUUGACAUGUGCAACUACUAGACAAGUUGUU	-0.907	-0.415	-1.21	-1.52
AAUAGAAGAAUUAUUCUAUU [SHAPE_invitro_SARS-CoV-2_Motif_349]	-0.546	-0.687	-0.867	-1.81
AAUAUUGCUUUGCUUGUACAGUAAGUGACAACAGAUGUUUCAUCUCGUUGACUUUCAGGUUACUAUAGCAGAGAUAUU [DMSMaPseq_invitro_SARS-CoV-2_Motif_488]	-0.135	0.152	-0.0703	0.237
AAUCAAAAAGAGUUGAUU [DMSMaPseq_invitro_SARS-CoV-2_Motif_439]	-0.396	-0.434	-0.416	-1.22
AAUCAUACAUCACCAGAUGUUGAUU [SHAPE_invitro_SARS-CoV-2_Motif_454]	-0.503	-0.477	-0.814	-0.903
AAUGAGUUUUACGCAUAUUUGCGUAAACAUU	-0.889	-0.413	-1.36	-1.23
AAUGUAGUAGAAUUAUACCUGCACGUGCUCGUGUAGAGUGUUUUGAUAAAUUCAAAGUGAAUUCAACAUUAGAACAGUAUGUCUUUUGUACUGUAAAUGCAUU	0.059	0.0794	0.182	-0.209
AAUGUUUUAUUCUCUACAGUGUUCCCACUUACAAGUUUUGGACCACUAGUGAGAAAAAUAUU [DMSMaPseq_invitro_SARS-CoV-2_Motif_260]	-0.786	-0.434	-0.882	-0.866
AAUUAUAAAUUACCAGAUGAUUUUACAGGCUGCGUUAUAGCUUGGAAUUCUAACAAUCUUGAUUCUAAGGUUGGUGGUAAUUAUAAUU	-0.932	-0.123	-0.993	-0.712
AAUUAUGAAGAUUUACUCAUUCGUAAGUCUAAUCAUAAUU	-0.0299	-0.3	-0.429	-0.858
AAUUGAUUCUUACUUUGUAGUUAAGAGACACACUUUCUCUAACUACCAACAUGAAGAAACAAUU	0.502	0.0491	0.281	-0.614
ACAACAACCAUAAAACCAGUUACUUAUAAAUUGGAUGGUGUUGU	-0.686	-0.38	-1.03	-1.37
ACAACAGGAGUCACCUUUUGU [DMSMaPseq_invitro_SARS-CoV-2_Motif_108]	-0.879	-0.592	-1.15	-1.07
ACAACCCUUAAGGGUGU [SHAPE_invivo_SARS-CoV-2_Motif_115]	-0.802	-0.665	-1.19	-1.1
ACAAGAGGGUGUGGUUGAUUAUGGUGCUAGAUUUUACUUUUACACCAGUAAAACAACUGUAGCGUCACUUAUCAACACACUUAACGAUCUAAAUGAAACUCUUGU	0.233	0.984	0.447	0.277
ACAAGAUGAUAAGAAAAUCAAAGCUUGU	-0.879	-0.459	-1.1	-0.969
ACAAGGCUAUUGAUGGUGGUGUCACUCGUGACAUAGCAUCUACAGAUACUUGU [SHAPE_invitro_SARS-CoV-2_Motif_170]	-0.355	-0.287	-0.449	-0.052
ACAAGUUGCAAUUUACAAGUCUUGAAAUUCCACGUAGGAAUGUGGCAACUUUACAAGCUGAAAAUGUAACAGGACUCUUUAAAGAUUGU	-0.302	0.247	-0.143	0.121

Sequence	pull-down binding Z-score [1]	pull-down binding Z-score [2]	pull-down binding Z-score [3]	pull-down binding Z-score [4]
ACAAUGGCAGACCUCGUCUAUGCUUUAAGGCAUUUUGAUGAAGGUAAUUGU	-0.812	-0.242	-0.93	-1.12
ACACAUUCUGACAAAUUCACAGAUGGUGU [SHAPE_invitro_SARS-CoV-2_Motif_350]	-0.577	-0.395	-0.471	0.264
ACACGGUGUUUAAACCGUGU	0.59	-0.00656	0.0341	-1.15
ACACUAAUUCUUUCACACGUGGUGU [DMSMaPseq_invitro_SARS-CoV-2_Motif_381]	-0.0462	-0.0877	-0.398	-0.973
ACACUCUACGUGU	-1.14	-0.979	-1.78	-1.93
ACAGAAUGCUGU	-0.821	-0.472	-1.14	-1.19
ACAGACUUCAUUAAGAUGUGGUGCUUGCAUACGUAGACCAUUCUUAUGUUGUAAAUGCUGUUACGACCAUGUCAUAUCAACAUCACAUAAAUUAGUCUUGUCUGU	-0.753	-0.127	-0.512	-0.489
ACAGAGACUGAUAGUAAGUUCUCUGU [IAV_invivo_NA_6_Motif_16+IAV_invivo_NA_6_Motif_16]	-0.363	-0.328	-0.696	-1.08
ACAGAUCUUUACCAGGAGUUUUCUGU	-0.933	-0.827	-1.28	-1.3
ACAGCAGAGUGCUGU [IAV_invivo_M1_M2_7_Motif_17+IAV_invivo_M1_M2_7_Motif_17]	-0.599	-0.794	-0.887	-1.37
ACAGGAGUCACCUUUUGU [SHAPE_invitro_SARS-CoV-2_Motif_112]	-0.709	-0.599	-0.78	-0.669
ACAGGGACUACUCCCACCCAAGAAUAGCAUAGAUGCCUUCAAACUCAACAUUAAAUUGUUGGGUGUUGGUGGCAAACCUUGUAUCAAAGUAGCCACUGU	-0.466	0.116	-0.503	-0.183
ACAGGUUUUAUCGAACCUGU [IAV_invivo_PB1_2_Motif_25+IAV_invivo_PB1_2_Motif_25]	-0.147	-0.571	-0.828	-1.54
ACAGUAUGUCUUUUGUACUGU	-0.159	-0.336	-0.525	-1.28
ACAGUCUGUACCGUCUGCGGUAUGUGGAAAGGUUAUGGCUGU	-0.239	-0.231	-0.273	0.213
ACAUACUAGGACCUCUUUCUGCUCAAACUGGAAUUGCCGUUUUAGAUAUGU [DMSMaPseq_invitro_SARS-CoV-2_Motif_193]	-0.933	-0.407	-0.989	-0.421
ACAUAGCAGUGGUGUUACCCGUGAACUCAUGCGUGAGCUUAACGGAGGGGCAUACACUCGCUAUGU	-0.138	-0.167	-0.015	0.0437
ACAUCAGCUUGUGUUUUGGCUGCUGAAUGU	-0.623	-0.534	-0.774	-0.485
ACAUCUCUGGCAUUAAUGCUUCAGUUGU [SHAPE_invivo_SARS-CoV-2_Motif_471]	-1.08	-0.583	-1.33	-1.06
ACAUGCCAAUUUAGAUUCUUGCAAAAGAGUCUUGAACGUGGUGUGU	-1.07	-0.712	-1.48	-1.62
ACAUUACACCAUGU [SHAPE_invivo_SARS-CoV-2_Motif_439]	-0.779	-0.6	-1.07	-0.865
ACAUUAGAUAAUCAAGAUCUCAAUGGUAACUGGUAUGAUUUCGGUGAUUUCAUACAAACCACGCCAGGUAGUGGAGUUCCUGUUGUAGAUUCUUAUUAUUCAUUGU	-0.0358	0.102	0.235	0.46
